Non-standard residues stand in square brackets, D forms with d. No end group written: not given here. *: point of attachment. hArg = N=C(N)NCCCC[C@H](N)C(=O)O; 4Pal = N[C@@H](Cc1ccncc1)C(=O)O; Cha = N[C@@H](CC1CCCCC1)C(=O)O; Cit = NC(=O)NCCC[C@H](N)C(=O)O; dIva = CC[C@@](C)(N)C(=O)O; Isobutyryl = CC(C)C(=O)*; Iva = CC[C@](C)(N)C(=O)O; dNMeA = CN[C@H](C)C(=O)O; Abu = CC[C@H](N)C(=O)O; Dap = NC[C@H](N)C(=O)O; Nleu = CC(C)CNCC(=O)O; Aib = CC(C)(N)C(=O)O; Bz = O=C(c1ccccc1)*
Tests used:
[1] = target: T1, human Y2 receptor (Homo sapiens, UniProt P49146); assay: Receptor Binding Assay (RBA) for Human Y2, [125I]-PYY displacement on hY2R/CHO membrane fraction; conditions: IC50 of test compound/IC50 of PYY(3-36) (PYY(3-36) taken as 1)
T1 construct: expressed in transfected cells; membrane fraction
T1 sequence (P49146 1-381): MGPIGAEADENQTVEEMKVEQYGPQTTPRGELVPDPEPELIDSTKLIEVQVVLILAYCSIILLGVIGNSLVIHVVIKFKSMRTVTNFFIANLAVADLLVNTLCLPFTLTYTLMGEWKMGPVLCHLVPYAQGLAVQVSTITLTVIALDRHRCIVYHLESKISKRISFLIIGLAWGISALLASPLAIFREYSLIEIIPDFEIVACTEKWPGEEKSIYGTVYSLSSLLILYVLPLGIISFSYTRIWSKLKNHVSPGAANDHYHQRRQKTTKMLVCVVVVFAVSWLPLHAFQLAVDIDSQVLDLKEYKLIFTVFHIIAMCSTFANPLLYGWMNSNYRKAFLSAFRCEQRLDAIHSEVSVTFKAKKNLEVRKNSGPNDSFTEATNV
Outline: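 hY2R stably expressed in CHO/dhfr− cells; membrane fraction prepared from cells disrupted in 10 mM NaHCO3, 5 mM EDTA buffer with protease inhibitors. Binding read as displacement of [125I]-PYY.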

[2] = target: T1, human Y2 receptor; assay: Human Y2 Receptor G Protein Binding Assay (GBA), [35S]GTPγS; format: biochemical; conditions: EC50 of test compound/EC50 of PYY(3-36) (PYY3-36 taken as 1), hY2R/CHO membrane fraction
Outline: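 Agonism measured as [35S]GTPγS binding, read by GF/C filtration and scintillation counting after 120 min at room temperature, using human Y2 membranes at 1 μg protein/mL in pH 7.4 Tris/MgCl2/NaCl/GDP buffer. Compound serially diluted 100 μM–1 nM; EC50 normalized to PYY(3-36) (ratio = compound/PYY).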

Substance | RBA IC50 Ratio [1] | GBA EC50 Ratio [2]
Ac-[D-Pro24, Cha27,28,36, Iva30, Aib31]-PYY(23-36) (Ac-S[dP]RH[Cha][Cha]N[Iva][Aib]TRQR[Cha]-NH2; SMILES CC[C@](C)(NC(=O)[C@H](CC(N)=O)NC(=O)[C@H](CC1CCCCC1)NC(=O)[C@H](CC1CCCCC1)NC(=O)[C@H](Cc1c[nH]cn1)NC(=O)[C@H](CCCNC(=N)N)NC(=O)[C@H]1CCCN1C(=O)[C@H](CO)NC(C)=O)C(=O)NC(C)(C)C(=O)N[C@H](C(=O)N[C@@H](CCCNC(=N)N)C(=O)N[C@@H](CCC(N)=O)C(=O)N[C@@H](CCCNC(=N)N)C(=O)N[C@@H](CC1CCCCC1)C(N)=O)[C@@H](C)O) [compound No. 202] | 43 | 20
Ac-[D-MeAla22, D-Pro24, Cha27,28,36, Aib31]-PYY(22-36) (Ac-[dNMeA]S[dP]RH[Cha][Cha]NL[Aib]TRQR[Cha]-NH2; SMILES CC(=O)N(C)[C@H](C)C(=O)N[C@@H](CO)C(=O)N1CCC[C@@H]1C(=O)N[C@@H](CCCNC(=N)N)C(=O)N[C@@H](Cc1c[nH]cn1)C(=O)N[C@@H](CC1CCCCC1)C(=O)N[C@@H](CC1CCCCC1)C(=O)N[C@@H](CC(N)=O)C(=O)N[C@@H](CC(C)C)C(=O)NC(C)(C)C(=O)N[C@H](C(=O)N[C@@H](CCCNC(=N)N)C(=O)N[C@@H](CCC(N)=O)C(=O)N[C@@H](CCCNC(=N)N)C(=O)N[C@@H](CC1CCCCC1)C(N)=O)[C@@H](C)O) [compound No. 124] | 3.5 | 6.1
Benzoyl-[Cha27,36, Ile28, Dap31]-PYY(25-36) (Bz-RH[Cha]INL[Dap]TRQR[Cha]-NH2; SMILES CC[C@H](C)[C@H](NC(=O)[C@H](CC1CCCCC1)NC(=O)[C@H](Cc1c[nH]cn1)NC(=O)[C@H](CCCNC(=N)N)NC(=O)c1ccccc1)C(=O)N[C@@H](CC(N)=O)C(=O)N[C@@H](CC(C)C)C(=O)N[C@@H](CN)C(=O)N[C@H](C(=O)N[C@@H](CCCNC(=N)N)C(=O)N[C@@H](CCC(N)=O)C(=O)N[C@@H](CCCNC(=N)N)C(=O)N[C@@H](CC1CCCCC1)C(N)=O)[C@@H](C)O) [compound No. 69] | 37 | 28
Ac-[D-Pro24, Cit26, Cha27,28,36, Aib31]-PYY(23-36) (Ac-S[dP]R[Cit][Cha][Cha]NL[Aib]TRQR[Cha]-NH2; SMILES CC(=O)N[C@@H](CO)C(=O)N1CCC[C@@H]1C(=O)N[C@@H](CCCNC(=N)N)C(=O)N[C@@H](CCCNC(N)=O)C(=O)N[C@@H](CC1CCCCC1)C(=O)N[C@@H](CC1CCCCC1)C(=O)N[C@@H](CC(N)=O)C(=O)N[C@@H](CC(C)C)C(=O)NC(C)(C)C(=O)N[C@H](C(=O)N[C@@H](CCCNC(=N)N)C(=O)N[C@@H](CCC(N)=O)C(=O)N[C@@H](CCCNC(=N)N)C(=O)N[C@@H](CC1CCCCC1)C(N)=O)[C@@H](C)O) [compound No. 152] | 5.5 | 1.7
Isobutanoyl-[Abu26, Cha27,36, His28, Aib31]-PYY(25-36) (Isobutyryl-R[Abu][Cha]HNL[Aib]TRQR[Cha]-NH2; SMILES CC[C@H](NC(=O)[C@H](CCCNC(=N)N)NC(=O)C(C)C)C(=O)N[C@@H](CC1CCCCC1)C(=O)N[C@@H](Cc1c[nH]cn1)C(=O)N[C@@H](CC(N)=O)C(=O)N[C@@H](CC(C)C)C(=O)NC(C)(C)C(=O)N[C@H](C(=O)N[C@@H](CCCNC(=N)N)C(=O)N[C@@H](CCC(N)=O)C(=O)N[C@@H](CCCNC(=N)N)C(=O)N[C@@H](CC1CCCCC1)C(N)=O)[C@@H](C)O) [compound No. 101] | 19 | 13
Ac-[D-Pro24, Cit25, Cha27,36, Aib28,31, Lys30]-PYY(23-36) (Ac-S[dP][Cit]H[Cha][Aib]NK[Aib]TRQR[Cha]-NH2; SMILES CC(=O)N[C@@H](CO)C(=O)N1CCC[C@@H]1C(=O)N[C@@H](CCCNC(N)=O)C(=O)N[C@@H](Cc1c[nH]cn1)C(=O)N[C@@H](CC1CCCCC1)C(=O)NC(C)(C)C(=O)N[C@@H](CC(N)=O)C(=O)N[C@@H](CCCCN)C(=O)NC(C)(C)C(=O)N[C@H](C(=O)N[C@@H](CCCNC(=N)N)C(=O)N[C@@H](CCC(N)=O)C(=O)N[C@@H](CCCNC(=N)N)C(=O)N[C@@H](CC1CCCCC1)C(N)=O)[C@@H](C)O) [compound No. 226] | 6.2 | 4.6
Ac-[D-Pro24, Ala(4Pip)25, Pya(4)26, Cha27,36, Aib28,31, Lys30]-PYY(23-36) [compound No. 311] (Ac-S[dP][Ala(4Pip)][4Pal][Cha][Aib]NK[Aib]TRQR[Cha]-NH2; also: Ala(4Pip) configuration not fixed (D or L), former peak) | 18 | 14
Benzoyl-[Asn26, Cha27,28,36, Aib31]-PYY(25-36) (Bz-RN[Cha][Cha]NL[Aib]TRQR[Cha]-NH2; SMILES CC(C)C[C@H](NC(=O)[C@H](CC(N)=O)NC(=O)[C@H](CC1CCCCC1)NC(=O)[C@H](CC1CCCCC1)NC(=O)[C@H](CC(N)=O)NC(=O)[C@H](CCCNC(=N)N)NC(=O)c1ccccc1)C(=O)NC(C)(C)C(=O)N[C@H](C(=O)N[C@@H](CCCNC(=N)N)C(=O)N[C@@H](CCC(N)=O)C(=O)N[C@@H](CCCNC(=N)N)C(=O)N[C@@H](CC1CCCCC1)C(N)=O)[C@@H](C)O) [compound No. 99] | 19 | 21

Now from value to substance:

RBA IC50 Ratio [1] | GBA EC50 Ratio [2] | Substance
1.1 | 1.0 | Ac-[Lys22,30, D-Pro24, Pya(4)26, Cha27,36, Aib28,31]-PYY(22-36) (Ac-KS[dP]R[4Pal][Cha][Aib]NK[Aib]TRQR[Cha]-NH2; SMILES CC(=O)N[C@@H](CCCCN)C(=O)N[C@@H](CO)C(=O)N1CCC[C@@H]1C(=O)N[C@@H](CCCNC(=N)N)C(=O)N[C@@H](Cc1ccncc1)C(=O)N[C@@H](CC1CCCCC1)C(=O)NC(C)(C)C(=O)N[C@@H](CC(N)=O)C(=O)N[C@@H](CCCCN)C(=O)NC(C)(C)C(=O)N[C@H](C(=O)N[C@@H](CCCNC(=N)N)C(=O)N[C@@H](CCC(N)=O)C(=O)N[C@@H](CCCNC(=N)N)C(=O)N[C@@H](CC1CCCCC1)C(N)=O)[C@@H](C)O) [compound No. 272]
1.7 | 2.6 | Ac-[D-Pro24, Pya(4)26, Cha27,36, D-Iva28, Lys30, Aib31]-PYY(23-36) (Ac-S[dP]R[4Pal][Cha][dIva]NK[Aib]TRQR[Cha]-NH2; SMILES CC[C@@](C)(NC(=O)[C@H](CC1CCCCC1)NC(=O)[C@H](Cc1ccncc1)NC(=O)[C@H](CCCNC(=N)N)NC(=O)[C@H]1CCCN1C(=O)[C@H](CO)NC(C)=O)C(=O)N[C@@H](CC(N)=O)C(=O)N[C@@H](CCCCN)C(=O)NC(C)(C)C(=O)N[C@H](C(=O)N[C@@H](CCCNC(=N)N)C(=O)N[C@@H](CCC(N)=O)C(=O)N[C@@H](CCCNC(=N)N)C(=O)N[C@@H](CC1CCCCC1)C(N)=O)[C@@H](C)O) [compound No. 234]
14 | 11 | Ac-[D-Pro24, D-Iva25, Cha27,28,36, Aib31]-PYY(23-36) (Ac-S[dP][dIva]H[Cha][Cha]NL[Aib]TRQR[Cha]-NH2; SMILES CC[C@@](C)(NC(=O)[C@H]1CCCN1C(=O)[C@H](CO)NC(C)=O)C(=O)N[C@@H](Cc1c[nH]cn1)C(=O)N[C@@H](CC1CCCCC1)C(=O)N[C@@H](CC1CCCCC1)C(=O)N[C@@H](CC(N)=O)C(=O)N[C@@H](CC(C)C)C(=O)NC(C)(C)C(=O)N[C@H](C(=O)N[C@@H](CCCNC(=N)N)C(=O)N[C@@H](CCC(N)=O)C(=O)N[C@@H](CCCNC(=N)N)C(=O)N[C@@H](CC1CCCCC1)C(N)=O)[C@@H](C)O) [compound No. 182]
0.36 | 0.79 | Ac-[D-Pro24, Pya(4)26, Cha27,36, Aib28,31, Har30]-PYY(23-36) (Ac-S[dP]R[4Pal][Cha][Aib]N[hArg][Aib]TRQR[Cha]-NH2; SMILES CC(=O)N[C@@H](CO)C(=O)N1CCC[C@@H]1C(=O)N[C@@H](CCCNC(=N)N)C(=O)N[C@@H](Cc1ccncc1)C(=O)N[C@@H](CC1CCCCC1)C(=O)NC(C)(C)C(=O)N[C@@H](CC(N)=O)C(=O)N[C@@H](CCCCNC(=N)N)C(=O)NC(C)(C)C(=O)N[C@H](C(=O)N[C@@H](CCCNC(=N)N)C(=O)N[C@@H](CCC(N)=O)C(=O)N[C@@H](CCCNC(=N)N)C(=O)N[C@@H](CC1CCCCC1)C(N)=O)[C@@H](C)O) [compound No. 277]
5.8 | 2.4 | [N(iBu)Gly23, D-Pro24, Cha27,28,36, Aib31]-PYY(23-36) ([Nleu][dP]RH[Cha][Cha]NL[Aib]TRQR[Cha]-NH2; N-terminus assumed; SMILES CC(C)CNCC(=O)N1CCC[C@@H]1C(=O)N[C@@H](CCCNC(=N)N)C(=O)N[C@@H](Cc1c[nH]cn1)C(=O)N[C@@H](CC1CCCCC1)C(=O)N[C@@H](CC1CCCCC1)C(=O)N[C@@H](CC(N)=O)C(=O)N[C@@H](CC(C)C)C(=O)NC(C)(C)C(=O)N[C@H](C(=O)N[C@@H](CCCNC(=N)N)C(=O)N[C@@H](CCC(N)=O)C(=O)N[C@@H](CCCNC(=N)N)C(=O)N[C@@H](CC1CCCCC1)C(N)=O)[C@@H](C)O) [compound No. 133]
